The IC50 is the concentration that gives 50% inhibition. The term EC50 denotes the concentration needed to bring the measured effect to its halfway point. By Kd is commonly meant the free concentration of one partner at which half of the binding sites on the other are occupied at equilibrium, for simple one-to-one binding. The koff is the first-order rate constant of dissociation. For orientation: kon means the second-order rate constant of association.

This is an account of results in patent publication US20260109758A1 (BIOSION, published 2026).

For assay [1], the target named is T1, human IL4Rα expressed on 293F-IL4Rα cell surface (human, UniProt P24394 26-825).
T1 construct: whole, on cells; also called human IL4Rα-expressing cells; cell surface IL4R
The experiment in a line: cell-based blocking FACS on 293F-IL4Rα cells; blocked ligand biotin human IL4. Here is the method: (§1) Then, 1×10⁵ cells per well were incubated in 96 well-plates in 100 μL of serially diluted bispecific antibodies, the positive controls or negative control (starting at 100 nM with a 5-fold serial dilution) in FACS buffer for 40 minutes on ice. […] The plates were washed twice with FACS buffer, and then added and incubated for 40 minutes at 4° C. in dark with 100 μL/well R-Phycoerythrin Streptavidin (1:500 dilution in FACS buffer, Jackson Immunoresearch, Cat #016-110-084). Cells were washed twice and resuspended in FACS buffer. Fluorescence was measured using a Becton Dickinson FACS Canto II-HTS equipment. Data was analyzed using Graphpad Prism and IC₅₀ values were reported.

Assay [2] addresses T2, recombinant human IL4Rα-his (human, UniProt P24394 26-231, limits assumed, biotin-labeled in the capture ELISA).
T2 construct: In-house made; not shown: His tag at the C-terminus
Description: competitive ELISA: coated human IL4Rα-his, antibody titrated; blocked ligand biotin human IL4. The procedure:
(§2) Briefly, 100 μL human IL4Rα-his proteins (prepared in-house, IL4Rα of SEQ ID NO: 33 with C-terminal His tag) were coated on 96-well micro plates at 2 μg/mL in PBS overnight at 4° C. The next day, plates were washed with wash buffer (PBS+0.05% w/v Tween-20, PBST), and blocked with 5% w/v non-fatty milk in PBST for 2 hours at 37° C. Plates were then washed again using wash buffer. Serially diluted bispecific antibodies or the controls (starting at 100 nM with a 5-fold serial dilution) in 2.5% w/v non-fatty milk in PBST, 100 μL per well, were added to the IL4Rα bound plates, and incubated at 37° C. for 40 minutes. […] Plates were washed again using wash buffer. Thereafter, the plates were added with 100 μL/well of streptavidin conjugated HRP (1:10000 dilution in PBST buffer, Jackson Immunoresearch, Cat #016-030-084) and incubated for 40 minutes at 37° C. Plates were washed again using wash buffer. Finally, TMB was added and the reaction was stopped using 1M H₂SO₄, and the absorbance was read at 450 nm. Data was analyzed using Graphpad Prism and IC₅₀ values were reported.
In general terms: ELISA stands for enzyme-linked immunosorbent assay.

Assay [3] has as its target human IL4Rα on HEK293T-IL4R/STAT6/STAT6-Luc LB2 cells (human, UniProt P24394 26-825). The experiment in a line: cell-based or functional assay.
The target of assay [4] is T2, recombinant human IL4Rα-his. Description: capture ELISA: antibody captured on anti-human IgG Fc F(ab')2, biotin human IL4Rα-his, SA-HRP. The procedure:
(§3) Briefly, 96-well plates were coated with 2 μg/mL AffiniPure F(ab′)₂ Fragment Goat Anti-Human IgG, Fey fragment specific (Jackson Immuno Research, Cat #109-006-008) in PBS, 100 μL/well, overnight at 4° C. Plates were washed once with wash buffer (PBS+0.05% w/v Tween-20, PBST) and then blocked with 200 μL/well blocking buffer (5% w/v non-fatty milk in PBST) for 2 hours at 37° C. […] After a final wash, plates were incubated with 100 μL/well ELISA substrate TMB (Innoreagents, Cat #TMB-S-002). The reaction was stopped in 10 minutes at 25° C. with 50 μL/well 1M H₂SO₄, and the absorbance was read on a microplate reader using dual wavelength mode with 450 nm for TMB and 630 nm as the reference wavelength. Data was analyzed using Graphpad Prism and EC₅₀ values were reported.

The target is the same in assay [5]. The experiment in a line: competitive ELISA: coated human IL4Rα-his, antibody titrated; blocked ligand biotin human IL4. Here is the method: as §2
This is another data set of the same source.

Assay [6] addresses T1, human IL4Rα expressed on 293F-IL4Rα …. The experiment in a line: flow cytometry on 293F-IL4Rα cells, PE anti-human IgG Fc. The procedure: (§4) Cells were washed twice with FACS buffer, and added with 100 μL/well R-Phycoerythrin AffiniPure Goat Anti-Human IgG, Fey fragment specific (1:1000 dilution in FACS buffer, Jackson Immunoresearch, Cat #109-115-098). Following an incubation of 40 minutes at 4° C. in dark, cells were washed three times and resuspended in FACS buffer. Fluorescence was measured using a Becton Dickinson FACS Canto II-HTS equipment. Data was analyzed using Graphpad Prism and EC₅₀ values were reported.
A general note: Flow cytometry measures light scatter and fluorescence of single cells or particles in a stream.

Assay [7] addresses T2, recombinant human IL4Rα-his. The experiment in a line: capture ELISA: antibody captured on anti-human IgG Fc F(ab')2, biotin human IL4Rα-his, SA-HRP. The procedure:
as §3
This is another data set of the same source.

Assay [8] has as its target T1, human IL4Rα expressed on 293F-IL4Rα …. The experiment in a line: cell-based blocking FACS on 293F-IL4Rα cells; blocked ligand biotin human IL4. The procedure:
as §1
This is another data set of the same source.

Assay [9] has as its target T2, recombinant human IL4Rα-his. Description: SPR Biacore T200; antibody captured on anti-human IgG CM5 chip, IL4Rα-his as analyte; 1:1 Langmuir fit. The procedure: The goat anti-human IgG (GE healthcare, Cat #BR100839, Human Antibody Capture Kit) was covalently linked to a CM5 chip (carboxy methyl dextran coated chip) via primary amines, using a standard amine coupling kit provided by Biacore (GE healthcare, Pittsburgh, PA, USA). Un-reacted moieties on the biosensor surface were blocked with ethanolamine. Then, purified bispecific antibodies of the disclosure at the concentration of 66.67 nM and the controls at 10 μg/mL, were flowed onto the chip at a flow rate of 10 μL/min. Then, serially diluted recombinant human IL4Rα-his (in house made, IL4Rα of SEQ ID NO: 33 with His tag at C-terminus) in HBS EP buffer (provided by Biacore) was flowed onto the chip at a flow rate of 30 μL/min. The association and dissociation curves were fit to a 1:1 Langmuir binding model using BIAcore evaluation software.
(SPR reads the build-up and loss of mass on a sensor chip optically.)

Assay [10] deals with T1, human IL4Rα expressed on 293F-IL4Rα …. The experiment in a line: flow cytometry on 293F-IL4Rα cells, PE anti-human IgG Fc. The procedure:
as §4
This is another data set of the same source.

Assay [11] concerns the target T3, biotin-labeled human TSLP-Fc (human, biotin-labeled).
T3 construct: also called TSLP-Fc protein; TSLP-Fc-biotin
Description: cell-based blocking FACS: antibody pre-mixed with biotin human TSLP-Fc; blocked binding to cell-surface TSLPR/IL7Ra on HEK293T-TSLPR/IL7R/STAT5-Luc 5C5 cells. The procedure: (§5) The cells were prepared following the instruction of lipofectamine 3000 transfection reagent (Thermo Fisher), by transfecting HEK293T cells (ATCC® CRL-11268) with pCMV-T-P plasmids inserted with TSLPR coding sequence between EcoRI and Xba1 sites and pCMV3-SP plasmids inserted with IL7Ra coding sequence between HindIII and Xba1 sites as well as pGL4.52 [luc2P/STAT5RE/Hygro](Promega).
(§6) The cells were harvested from cell culture flasks, washed twice and re-suspended in phosphate buffered saline (PBS) containing 2% v/v Fetal Bovine Serum (FACS buffer). […] Cells were washed twice with FACS buffer, and then added and incubated with 100 μL/well R-Phycoerythrin Streptavidin (1:500 dilution in FACS buffer, Jackson Immunoresearch, Cat #016-110-084) for 40 minutes at 4° C. in dark. Cells were washed twice and re-suspended in FACS buffer. Fluorescence was measured using a Becton Dickinson FACS Canto II-HTS equipment. Data was analyzed using Graphpad Prism and IC₅₀ values were reported.

In assay [12] the target is T3, biotin-labeled human TSLP-Fc. Described as above. Here is the method: as §5, §6
The source holds these as a separate data set.

Assay [13] deals with T4, recombinant human TSLP-his (human, UniProt Q969D9 29-159, biotin-labeled in the ELISAs).
T4 construct: In-house made; not shown: His tag at the C-terminus
The experiment in a line: competitive ELISA: antibody pre-mixed with biotin human TSLP-his; blocked binding to coated TSLPR-Fc/IL7Ra-Fc. The procedure: Briefly, 100 μL human TSLPR-Fc proteins (SEQ ID NO: 34-SEQ ID NO: 38 fusion, prepared in-house) at 1 μg/mL in PBS, and 100 μL human IL7Ra-Fc proteins (SEQ ID NO: 35-SEQ ID NO: 38 fusion, prepared in-house) at 1 μg/mL in PBS were coated on 96-well micro plates overnight at 4° C. The next day, plates were washed with wash buffer (PBS+0.05% Tween-20, PBST), and blocked with 5% w/v non-fatty milk in PBST for 2 hours at 37° C. Plates were then washed again using wash buffer.
After incubation at 37° C. for 40 minutes, plates were washed 4 times using wash buffer. […] Plates were washed again using wash buffer. Finally, TMB was added and the reaction was stopped using 1M H₂SO₄. The absorbance was read on a microplate reader using dual wavelength mode with 450 nm for TMB and 630 nm as the reference wavelength, then the OD (450-630) values were plotted against the antibody concentration. Data was analyzed using Graphpad Prism and IC₅₀ values were reported.

Assay [14] deals with T4, recombinant human TSLP-his. The experiment in a line: capture ELISA: antibody captured on anti-human IgG Fc F(ab')2, biotin human TSLP-his, SA-HRP. The procedure:
Briefly, 96-well micro plates were coated with 100 μL 2 μg/mL AffiniPure F(ab′)₂ Fragment Goat Anti-Human IgG, Fey fragment specific (Jackson Immuno Research, Cat #109-006-008) in PBS and incubated overnight at 4° C. Plates were washed 4 times with wash buffer (PBS+0.05% Tween-20, PBST) and then blocked with 200 μL/well blocking buffer (5% w/v non-fatty milk in PBST) for 2 hours at 37° C. […] After the final wash, the plates were incubated with 100 μL/well TMB (Innoreagents). The reaction was stopped 15 minutes later at room temperature with 50 μL/well 1M H₂SO₄, and the absorbance of each well was read on a microplate reader using dual wavelength mode with 450 nm for TMB and 630 nm as the reference wavelength. The OD (450-630) values were plotted against antibody concentration. Data was analyzed using Graphpad Prism and EC₅₀ values were reported.

Where two headings read alike, the source gives them in different places.

B1: huC2C1A1A1-V15(IgG4) (antibody)
heavy: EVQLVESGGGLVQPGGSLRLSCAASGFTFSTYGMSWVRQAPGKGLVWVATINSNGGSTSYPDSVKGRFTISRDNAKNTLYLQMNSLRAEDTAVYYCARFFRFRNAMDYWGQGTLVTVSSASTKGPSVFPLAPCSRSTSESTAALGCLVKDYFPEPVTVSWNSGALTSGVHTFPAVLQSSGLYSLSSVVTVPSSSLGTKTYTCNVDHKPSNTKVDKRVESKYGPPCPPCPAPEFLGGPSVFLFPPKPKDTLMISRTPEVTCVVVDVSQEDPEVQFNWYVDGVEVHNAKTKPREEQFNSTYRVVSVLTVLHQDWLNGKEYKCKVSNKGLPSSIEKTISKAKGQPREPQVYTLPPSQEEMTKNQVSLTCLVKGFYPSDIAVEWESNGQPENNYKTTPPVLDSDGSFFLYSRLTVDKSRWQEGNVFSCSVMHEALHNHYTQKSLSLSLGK
light: DIQMTQSPSSLSASVGDRVTITCRTSENIYSYLAWYQQKPGKAPKFLVYNAKTLAEGVPSRFSGSGSGTDFTLTISSLQPEDFATYYCQHYYGPPTWTFGQGTKVEIKRTVAAPSVFIFPPSDEQLKSGTASVVCLLNNFYPREAKVQWKVDNALQSGNSQESVTEQDSKDSTYSLSSTLTLSKADYEKHKVYACEVTHQGLSSPVTKSFNRGEC
notes: also called anti-IL4R huC2C1A1A1-V15
B1: the half-inhibitory concentration (IC50) in [1] came to 0.107 nM; in assay [2] it was 0.266 nM; in assay [5], 0.364 nM. Also, in assay [3], the “Inhibition on IL4 induced STAT6 phosphorylation (IC50, nM)” value was found to be 0.015 nM. Moreover, the “Inhibition on IL13 induced STAT6 phosphorylation (IC50, nM)” value in assay [3] was found to be 0.033 nM. The figures for the half-maximal effective concentration (EC50) in assay [4] and in assay [6] were 0.0225 nM and ~0.161 nM, respectively.

B2: Dupilumab (antibody, V domains shown)
VH: EVQLVESGGGLEQPGGSLRLSCAGSGFTFRDYAMTWVRQAPGKGLEWVSSISGSGGNTYYADSVKGRFTISRDNSKNTLYLQMNSLRAEDTAVYYCAKDRLSITIRPRYYGLDVWGQGTTVTVSS
VL: DIVMTQSPLSLPVTPGEPASISCRSSQSLLYSIGYNYLDWYLQKSGQSPQLLIYLGSNRASGVPDRFSGSGSGTDFTLKISRVEAEDVGFYYCMQALQTPYTFGQGTKLEIKR
Take B2: the IC50 in assay [2] is 0.22 nM. In assay [3], the “Inhibition on IL4 induced STAT6 phosphorylation (IC50, nM)” value stood at 0.00473 nM and the “Inhibition on IL13 induced STAT6 phosphorylation (IC50, nM)” value was found to be 0.0262 nM. Also, the EC50 in [7] is 0.015 nM. The IC50 in assay [8] worked out at 0.102 nM. Further, the half-maximal inhibitory concentration (IC50) in assay [5] stood at 0.254 nM. In assay [9], the equilibrium dissociation constant (Kd) worked out at 0.196 nM, the koff was 5.58e-05 s⁻¹ and the kon was 285000 M⁻¹ s⁻¹. The molecule further gave a concentration giving a half-maximal response (EC50) in [10] of 0.128 nM.

B3: hu1C5F12E9-V8(IgG4) (antibody)
heavy: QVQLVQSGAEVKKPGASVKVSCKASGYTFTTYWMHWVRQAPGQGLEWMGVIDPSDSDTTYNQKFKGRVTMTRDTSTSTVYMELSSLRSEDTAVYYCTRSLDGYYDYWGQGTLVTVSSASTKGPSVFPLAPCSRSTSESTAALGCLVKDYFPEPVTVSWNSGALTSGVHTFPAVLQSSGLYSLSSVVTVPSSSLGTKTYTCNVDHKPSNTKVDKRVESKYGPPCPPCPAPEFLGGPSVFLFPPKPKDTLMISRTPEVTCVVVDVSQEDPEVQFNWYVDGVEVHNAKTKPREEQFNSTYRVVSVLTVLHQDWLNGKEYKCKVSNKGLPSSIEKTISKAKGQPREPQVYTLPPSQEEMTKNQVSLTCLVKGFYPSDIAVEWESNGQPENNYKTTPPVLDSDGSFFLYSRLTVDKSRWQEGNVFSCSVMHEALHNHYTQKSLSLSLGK
light: DIQMTQSPSSLSASVGDRVTITCRPTENIYSYLAWYQQKPGKAPKLLIYFARTLAEGVPSRFSGSGSGTDFTLTISSLQPEDFATYYCQHHYGTPWTFGGGTKVEIKRTVAAPSVFIFPPSDEQLKSGTASVVCLLNNFYPREAKVQWKVDNALQSGNSQESVTEQDSKDSTYSLSSTLTLSKADYEKHKVYACEVTHQGLSSPVTKSFNRGEC
notes: also called parental anti-TSLP antibody hu1C5F12E9-V8(IgG4)
On to B3, for which the 50% inhibitory concentration (IC50) in assay [11] is 1.04 nM; in [12], 1 nM; in assay [13], 0.0716 nM. Also, the EC50 in [14] worked out at 0.0512 nM.
